Patent publication US20260242839A1, “GLYCOSIDE PRODUCT BIOSYNTHESIS AND RECOVERY” (Manus Bio Inc., priority 2023, published 2026)
Residue numbers refer to the chain shown, from its start. In names and notes the source's numbering stands.

B1: A143W: mutation to UGT enzyme of SEQ ID NO: 14 (protein)
chain: MATKNSSGMSLAERFWLTLSRSSLVVGRSCVEFEPETVPLLSTLRGKPITFLGLMPPLHEGRREDGEDATVRWLDAQPAKSVVYVALGSEVPLGVEKVHELALGLELAGTRFLWALRKPTGVSDADLLPAGFEERTRGRGVVWTRWVPQMSILAHAAVGAFLTHCGWNSTIEGLMFGHPLIMLPITGDQGPNARLIEAKNAGLQVARNDGDGSFDREGVAAAIRAVAVEEESSKVFQAKAKKLQEIVADMACHERYIDGFIQQLRSYKDDSGYSSSYAAAAGMHVVICPWLAFGHLLPCLDLAQRLASRGHRVSFVSTPRNISRLPPVRPALAPLVAFVALPLPRVEGLPDGAESTNDVPHDRPDMVELHRRAFDGLAAPFSEFLGTACADWVIVDSFHHWAAAAALEHKVPCAMMLLGSAEMIASIADERLEHAETESPAAAGQGRPAAAPTFEVARMKLIR
B2: T186I: mutation to UGT enzyme of SEQ ID NO: 14 (protein)
chain: B1 chain with W143A, T186I
B3: V38F: mutation to UGT enzyme of SEQ ID NO: 14 (protein)
chain: B1 chain with V38F, W143A
B4: T43D: mutation to UGT enzyme of SEQ ID NO: 14 (protein)
chain: B1 chain with T43D, W143A
B5: H99T: mutation to UGT enzyme of SEQ ID NO: 14 (protein)
chain: B1 chain with H99T, W143A
B6: T3R: mutation to UGT enzyme of SEQ ID NO: 14 (protein)
chain: B1 chain with T3R, W143A
B7: V26I: mutation to UGT enzyme of SEQ ID NO: 14 (protein)
chain: B1 chain with V26I, W143A
B8: M250K_A251E_C252L: mutation to UGT enzyme of SEQ ID NO: 14 (protein)
chain: B1 chain with W143A, M250K, A251E, C252L
B9: P39T: mutation to UGT enzyme of SEQ ID NO: 14 (protein)
chain: B1 chain with P39T, W143A
B10: L417M: mutation to UGT enzyme of SEQ ID NO: 14 (protein)
chain: B1 chain with W143A, L417M
B11: V31P: mutation to UGT enzyme of SEQ ID NO: 14 (protein)
chain: B1 chain with V31P, W143A
B12: L417F: mutation to UGT enzyme of SEQ ID NO: 14 (protein)
chain: B1 chain with W143A, L417F
B13: G94R: mutation to UGT enzyme of SEQ ID NO: 14 (protein)
chain: B1 chain with G94R, W143A
B14: Q244K: mutation to UGT enzyme of SEQ ID NO: 14 (protein)
chain: B1 chain with W143A, Q244K
B15: C252R: mutation to UGT enzyme of SEQ ID NO: 14 (protein)
chain: B1 chain with W143A, C252R
B16: R45F: mutation to UGT enzyme of SEQ ID NO: 14 (protein)
chain: B1 chain with R45F, W143A
B17: Y267H: mutation to UGT enzyme of SEQ ID NO: 14 (protein)
chain: B1 chain with W143A, Y267H
B18: S29T: mutation to UGT enzyme of SEQ ID NO: 14 (protein)
chain: B1 chain with S29T, W143A
B19: R145S: mutation to UGT enzyme of SEQ ID NO: 14 (protein)
chain: B1 chain with W143A, R145S
B20: C299A: mutation to UGT enzyme of SEQ ID NO: 14 (protein)
chain: B1 chain with W143A, C299A
B21: D269R: mutation to UGT enzyme of SEQ ID NO: 14 (protein)
chain: B1 chain with W143A, D269R
B22: L11I: mutation to UGT enzyme of SEQ ID NO: 14 (protein)
chain: B1 chain with L11I, W143A
B23: I427F: mutation to UGT enzyme of SEQ ID NO: 14 (protein)
chain: B1 chain with W143A, I427F
B24: T453F: mutation to UGT enzyme of SEQ ID NO: 14 (protein)
chain: B1 chain with W143A, T453F
B25: T37S: mutation to UGT enzyme of SEQ ID NO: 14 (protein)
chain: B1 chain with T37S, W143A
B26: V95Q: mutation to UGT enzyme of SEQ ID NO: 14 (protein)
chain: B1 chain with V95Q, W143A
B27: I152L: mutation to UGT enzyme of SEQ ID NO: 14 (protein)
chain: B1 chain with W143A, I152L
B28: Q262E: mutation to UGT enzyme of SEQ ID NO: 14 (protein)
chain: B1 chain with W143A, Q262E
B29: A238E: mutation to UGT enzyme of SEQ ID NO: 14 (protein)
chain: B1 chain with W143A, A238E

What follows are molecules tested on steviol glycoside (assay: steviol glycoside bioconversion by E. coli expressing individual mutations of UGT SEQ ID NO: 14). Conditions: fold improvement of % conversion vs parent UGT SEQ ID NO: 14; stevia leaf extract and glucose fed; 37° C., 48 hr.
Format: cell-based
Protocol: Fold improvement is with respect to % steviol glycoside conversion of the parent UGT enzyme of SEQ ID NO: 14. The UGT enzyme of SEQ ID NO: 15 has the following mutations from SEQ ID NO: 14: ins_A2_T3_RR, H59P, A238E, L417F. Stevia leaf extract and glucose were fed to the bioconversion strains. Bioconversion took place at 37° C. for 48 hr. Data were quantified by reverse phase LC DAD to quantify conversion of steviol glycosides.
Fold improvement (FI) is with respect to % steviol glycoside conversion.
In the case of B1, the “FI %Stevioside→rebE” value is reported as 1.3 and the “FI %rebA→rebD” value is reported as 1.3.
With B2 the “FI %Stevioside→rebE” value was 1.48 and the “FI %rebA→rebD” value was 1.24.
With B3 the “FI %Stevioside→rebE” value was 1.33 and the “FI %rebA→rebD” value was 1.19.
For B4, the “FI %Stevioside→rebE” value was 1.29 and the “FI %rebA→rebD” value was 1.08.
In the case of B5, the “FI %Stevioside→rebE” value is reported as 0.76 and the “FI %rebA→rebD” value is reported as 1.04.
For B6, the “FI %Stevioside→rebE” value was 1.9 and the “FI %rebA→rebD” value was 1.6.
For B7, the “FI %Stevioside→rebE” value was 1.18 and the “FI %rebA→rebD” value was 1.16.
B8 was tested, and the “FI %Stevioside→rebE” value was 1.40 and the “FI %rebA→rebD” value was 1.23.
With B9 the “FI %Stevioside→rebE” value was 1.31 and the “FI %rebA→rebD” value was 0.98.
In the case of B10, the “FI %Stevioside→rebE” value is reported as 1.02 and the “FI %rebA→rebD” value is reported as 1.02.
For B11, the “FI %Stevioside→rebE” value was 1.22 and the “FI %rebA→rebD” value was 1.08.
For B12, the “FI %Stevioside→rebE” value was 1.34 and the “FI %rebA→rebD” value was 1.24.
B13 was tested, and the “FI %Stevioside→rebE” value was 1.12 and the “FI %rebA→rebD” value was 1.13.
For B14, the “FI %Stevioside→rebE” value was 1.25 and the “FI %rebA→rebD” value was 1.16.
In the case of B15, the “FI %Stevioside→rebE” value is reported as 1.25 and the “FI %rebA→rebD” value is reported as 1.19.
With B16 the “FI %Stevioside→rebE” value was 1.35 and the “FI %rebA→rebD” value was 1.18.
B17 was tested, and the “FI %Stevioside→rebE” value was 1.8 and the “FI %rebA→rebD” value was 1.6.
B18 was tested, and the “FI %Stevioside→rebE” value was 1.05 and the “FI %rebA→rebD” value was 1.00.
With B19 the “FI %Stevioside→rebE” value was 1.06 and the “FI %rebA→rebD” value was 1.14.
In the case of B20, the “FI %Stevioside→rebE” value is reported as 0.76 and the “FI %rebA→rebD” value is reported as 1.03.
In the case of B21, the “FI %Stevioside→rebE” value is reported as 2.0 and the “FI %rebA→rebD” value is reported as 1.7.
For B22, the “FI %Stevioside→rebE” value was 1.39 and the “FI %rebA→rebD” value was 1.16.
In the case of B23, the “FI %Stevioside→rebE” value is reported as 1.15 and the “FI %rebA→rebD” value is reported as 1.24.
B24 was tested, and the “FI %Stevioside→rebE” value was 1.32 and the “FI %rebA→rebD” value was 1.20.
For B25, the “FI %Stevioside→rebE” value was 1.35 and the “FI %rebA→rebD” value was 1.17.
In the case of B26, the “FI %Stevioside→rebE” value is reported as 1.8 and the “FI %rebA→rebD” value is reported as 1.6.
B27 was tested, and the “FI %Stevioside→rebE” value was 1.09 and the “FI %rebA→rebD” value was 1.15.
For B28, the “FI %Stevioside→rebE” value was 2.0 and the “FI %rebA→rebD” value was 1.7.
B29 was tested, and the “FI %Stevioside→rebE” value was 1.9 and the “FI %rebA→rebD” value was 1.6.
